In patent publication US20240270817A1 (PETMEDIX, published 2024):
Where two headings read alike, the source gives them in different places.

Experiments:
[1] = target: NGF (species not stated) (Homo sapiens (Human)) (UniProt P01138); assay: cell-based or functional assay
[2] = target: NGF (species not stated) (Homo sapiens (Human)) (UniProt P01138); assay: SPR, Biacore 8K; captured on Protein A chip, NGF in solution (the table does not say human or rat)
[3] = target: NGF (species not stated) (Homo sapiens (Human)) (UniProt P01138); assay: cell-based or functional assay; remark: listed apart in the source
[4] = target: T1, human Nerve Growth Factor (human, UniProt P01138 122-241); assay: cell-based or functional assay
T1 sequence (P01138 122-241 limits assumed): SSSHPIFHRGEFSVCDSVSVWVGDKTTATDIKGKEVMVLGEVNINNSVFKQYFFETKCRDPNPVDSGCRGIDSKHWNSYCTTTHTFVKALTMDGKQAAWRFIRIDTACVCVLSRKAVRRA

[5] = target: T1, human Nerve Growth Factor; assay: SPR, Biacore 8K; captured on Protein A chip, hNGF in solution, multi-cycle kinetics

Molecule | Bottom (%), best-fit values, PathHunter TrkA activation assay [1] | IC50 (nM), PathHunter TrkA activation assay [1] | Kd [2] | Top (%), best-fit values, PathHunter TrkA activation assay [1] | Bottom (%), best-fit, PathHunter TrkA activation assay [3] | IC50 (nM), PathHunter TrkA activation assay [3] | Top (%), best-fit, PathHunter TrkA activation assay [3] | maximal TrkA inhibition, PathHunter TrkA activation assay [3] | IC50 (nM), TF-1 cell proliferation inhibition [4] | ICMAX (%), TF-1 cell proliferation inhibition [4] | Kd [5]
PetML319 (Human p75NTR ECD no stalk IgG1) (Fc fusion) | 9.5% | 8.04 nM | 0.358 nM | – | – | – | – | – | – | – | –
PetML308 (Human p75NTR ECD full stalk IgG1) (Fc fusion) | 44.5% | 282 nM | 8.78 nM | 105% | – | – | – | – | – | – | –
Bedinvetmab (antibody, V domains shown) VH: EVQLVESGGDLVKPGGSLRLSCVASGFTFSSHGMHWVRQSPGKGLQWVAVINSGGSSTYYTDAVKGRFTISRDNAKNTVYLQMNSLRAEDTAMYYCAKESVGGWEQLVGPHFDYWGQGTLVIVSS VL: QSVLTQPTSVSGSLGQRVTISCSGSTNNIGILGASWYQLFPGKAPKLLVYGNGNRPSGVPDRFSGADSGDSVTLTITGLQAEDEADYYCQSFDTTLGAHVFGGGTHLTVL | 2.11% | 1.14 nM | 0.0073 nM | 93.5% | 5.35% | 4.24 nM | 123% | 100% | 0.89 nM | 96.8% | 0.0073 nM
